Test results as given in paper PMC7074700.

Molecular target: Helicobacter pylori CbpA, wild type, carboxyl-terminal His-tagged (H. pylori (strain G27))
Test: cross-linking; 5 uM purified protein with 0, 0.0025, 0.005 and 0.01% glutaraldehyde in 1x binding buffer (10 mM Tris-HCl pH 8.0, 50 mM NaCl, 10 mM KCl, 5 mM MgCl2, 0.1 mM DTT, 0.01% NP40), 1 hour at 25 °C; SDS-PAGE, Coomassie staining

In the case of “Helicobacter pylori CbpA, wild type, carboxyl-terminal His-tagged (natural protein)”, the stoichiometry N is reported as 2.
